Assay [1] deals with single-chain fusion protein of CD4i antibody domain m36.4 with gp120MS (human | HIV-1 (clade A isolate)). Put plainly: SPR.
Assay [2] has as its target single-chain fusion protein of CD4i antibody domain m36.4 with gp120SC (human | HIV-1 (clade B isolate)). The experiment in a line: SPR. (In general: Surface plasmon resonance follows binding to a sensor surface in real time, without labels.)
Assay [3] addresses single-chain fusion protein of CD4i antibody domain m36.4 with gp140SC (human | HIV-1 (clade B isolate)). Put plainly: SPR.
Assay [4] deals with single-chain fusion protein of CD4i scFv m9 with gp120SC (HIV-1 (clade B isolate)). Put plainly: SPR.
Assay [5] addresses stabilized gp120SC with T257S+S375W mutations (HIV-1 (clade B isolate)). The experiment in a line: SPR.
In assay [6] the target is truncated HIV-1 gp120MS (residues 83-492, intact variable loops) (HIV-1 (clade A isolate)). Put plainly: SPR.
Assay [7] addresses truncated HIV-1 gp120SC (residues 83-492, intact variable loops) (HIV-1 (clade B isolate)). The experiment in a line: SPR.
Assay [8] addresses truncated HIV-1 gp120MS (residues 83-492, intact variable loops) (HIV-1 (clade A isolate)). The experiment in a line: SEC. For orientation: In gel filtration, larger molecules generally elute earlier.
Assay [9] has as its target truncated HIV-1 gp120SC (residues 83-492, intact variable loops) (HIV-1 (clade B isolate)). The experiment in a line: SEC.

We go through three substances from article PMC3444823.

As a reminder, the Kd is the equilibrium constant for the complex coming apart. High values mean a looser complex, low ones a tighter complex. For the substance “two-domain human soluble CD4 (domain or fragment)”, the Kd was 0.15 nM in [1]; 0.73 nM in [2]; 1.9 nM in assay [3]; 1.8 nM in [4]; 59 nM in assay [5]; 0.21 nM in [6]. For the same substance, in assay [7], the Kd was 104 nM.

In general, stoichiometry N refers to a count of units in the complex or per binding partner. With “truncated HIV-1 gp120MS (residues 83-492, intact variable loops) (domain or fragment)”, in assay [8], the stoichiometry N stood at 2.

“truncated HIV-1 gp120SC (residues 83-492, intact variable loops) (domain or fragment)” registered a stoichiometry N in [9] of 2.
